Results on one molecule are retold here after patent US20080182978A1, “ANTI-NGF ANTIBODIES AND METHODS USING SAME” (RINAT NEUROSCIENCE CORP, priority 2002, published 2008).

Where only a bound is given, the exact number is not on record here.

The target in experiment [1] is interaction of human NGF with trkA (Homo sapiens, UniProt P01138). The experiment can be described thus: BIAcore: blocking of NGF binding to trkA on chip. As to conditions: 2.5 nM human NGF preincubated one hour; Fab concentration equal to NGF concentration. The procedure: (§1) Antibody E3 (interchangeably termed 3E) was selected for further analysis based on the high binding affinity. To test the ability of E3 to prevent the interaction of NGF with the NGF receptors trkA and p75, 2.5 nM of human NGF was premixed and incubated for one hour with 0 to 50 nM of antibody E3 (Fab). After the incubation, samples were injected at 10 ul/minute on a BIAcore CM5 chip containing 260 RU of p75 (channel 2) and 600 RU of trkA (channel 3), and percent binding was determined.
Chain of interaction of human NGF with trkA (P01138 122-241): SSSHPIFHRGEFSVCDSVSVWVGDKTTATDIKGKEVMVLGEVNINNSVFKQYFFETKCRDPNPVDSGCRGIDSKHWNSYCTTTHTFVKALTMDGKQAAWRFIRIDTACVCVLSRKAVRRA
For orientation: SPR reads the build-up and loss of mass on a sensor chip optically.

In the next experiment the target is T1, NT4/5 (Homo sapiens, UniProt P34130).
T1 sequence (P34130 81-210): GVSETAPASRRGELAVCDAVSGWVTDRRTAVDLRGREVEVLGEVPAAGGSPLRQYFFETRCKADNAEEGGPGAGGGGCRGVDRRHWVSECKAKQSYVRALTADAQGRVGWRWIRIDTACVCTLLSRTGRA
The experiment can be described thus: Mouse E17 nodose neuron survival assay, NT4/5. In kind it is cell-based. As to conditions: NT4/5 400 pM; antibody up to 200 nM; 48 hours. The procedure:
(§2) The ability of antibody E3 to specifically block NGF activity was also evaluated by measurement of the capacity of the antibody to inhibit survival of mouse nodose E17 neurons in the presence of saturating concentrations of BDNF or NT4/5. Survival of nodose neurons is supported by BDNF or NT4/5; therefore, survival of these neurons is a sensitive assay to evaluate the BDNF or NT4/5-blocking ability of the anti-NGF antagonist antibody.
(§3) The survival assay was conducted as follows: time mated pregnant Swiss Webster female mice were euthanised by CO2 inhalation. The uterine horns were removed and the embryos (at embryonic day 17 or 18) were extracted and decapitated. The trigeminal and nodose ganglia were dissected and cleaned. The ganglia were then trypsinised, mechanically dissociated and plated at a density of 100-300 cells per well in defined, serum-free medium in 4-well plates (Greiner) coated with poly-L-ornithine and laminin.
(§4) E17 nodose neurons were grown either in the absence of added neurotrophic factors (negative control), or with saturating concentrations of BDNF (400 pM) (positive control) or NT4/5 (400 pM) or NGF unrelated growth factor […]. High concentrations of neurotrophins were used, as the goal of this experiment was to test specificity of the antibodies. […]

The target in experiment [2] is macrophage stimulating protein (MSP) (Homo sapiens, UniProt P26927). The experiment can be described thus: Mouse E17/18 trigeminal neuron survival assay, MSP. In kind it is cell-based. As to conditions: MSP 600 pM; antibody up to 200 nM; 48 hours. The procedure:
(§5) The ability of antibody E3 to specifically block NGF activity was evaluated by measurement of the capacity of the antibody to inhibit survival of mouse E17/18 trigeminal neurons in vitro in the presence of saturating concentrations of NGF, the NGF-related neurotrophin NT3, or the NGF-unrelated neurotrophic factor, macrophage stimulating protein (MSP). The survival of mouse E17/18 trigeminal neurons is a sensitive assay to evaluate the NGF-blocking activity of anti-NGF antagonist antibodies because NGF is required to support survival of these neurons at higher concentrations than the level of NGF required to support survival of E13.5 TG neurons).
as §3
(§6) E17/18 trigeminal neurons were grown either without added neurotrophic factors (negative control) or in the presence of saturating concentrations of human NGF (400 pM and 15 pM) (positive control); NT3 (400 pM); or MSP (600 pM). […]

In experiment [3] the target is T2, human NGF (Homo sapiens, UniProt P01138). Briefly: BIAcore affinity determination assay (kon, koff, KD of purified Fabs). In kind it is binding. As to conditions: Fab on immobilized human NGF. The procedure:
Affinities of anti-NGF Fabs and monoclonal antibodies were determined using the BIAcore300™ surface plasmon resonance (SPR) system (BIAcore, INC, Piscaway N.J.). CM5 chips were activated with N-ethyl-N′-(3-dimethylaminopropyl)-carbodimide hydrochloride (EDC) and N-hydroxysuccinimide (NHS) according to the supplier's instructions. Human NGF was diluted into 10 mM sodium acetate pH 4.0 and injected over the activated chip at a concentration of 0.005 mg/mL. Using variable flow time across the individual chip channels, two ranges of antigen density were achieved: 100-200 response units (RU) for detailed kinetic studies and 500-600 RU for screening assays. The chip was blocked with ethanolamine. […] HBS-EP buffer (0.01M HEPES, pH 7.4, 0.15 NaCl, 3 mM EDTA, 0.005% Surfactant […]) was used as running buffer for all the BIAcore assays.
Serial dilutions (0.1-10× estimated KD) of purified Fab samples were injected for 1 min at 100 μL/min and dissociation times of up to 2 h were allowed. The concentrations of the Fab proteins were determined by ELISA and/or SDS-PAGE electrophoresis using as a standard a Fab of known concentration (as determined by amino acid analysis). Kinetic association rates (kon) and dissociation rates (koff) were obtained simultaneously by fitting the data to a 1:1 Langmuir binding model (Karlsson, R. Roos, H. Fagerstam, L. Petersson, B. (1994). Methods Enzymology 6. 99-110) using the BIAevaluation program. Equilibrium dissociation constant (KD) values were calculated as koff/kon.
The binding affinities to human NGF of Fabs E3 and 3C were measured using BIAcore analysis according to the manufacturer's instructions and as described above, except that 100 RU NGF was used on chip to prevent a rebinding effect. Briefly, several concentrations of antibodies (Fabs) were injected for 2 minutes onto a CM5 chip with 100 RU of immobilized human NGF on it, and permitted to dissociate for 1800 seconds. Mouse antibody 911 (Fab) was analyzed as a control. Data was analyzed using BIAevaluation software following the manufacturer's instructions. E3 bound human NGF with a KD of approximately 0.07 nM (and with a kon of about 6.0e5 M-1s-1, and a koff of about 4.2e-5s-1).

Experiment [4] has as its target T2, human NGF. Briefly: Mouse E17/18 trigeminal neuron survival assay, NGF. In kind it is cell-based. The following applies: saturating NGF (400 pM); 48 hours. How it is done:
as §5, §3, §6

The target in experiment [5] is interaction of human NGF with p75 (Homo sapiens, UniProt P01138). The experiment can be described thus: BIAcore: blocking of NGF binding to p75 on chip. The following applies: 2.5 nM human NGF preincubated one hour; Fab concentration equal to NGF concentration. The procedure: as §1
Chain of interaction of human NGF with p75 (P01138 122-241): as the sequence (P01138 122-241) above
Another experiment concerns the target T3, NT3 (Homo sapiens, UniProt P20783).
T3 sequence (P20783 139-257): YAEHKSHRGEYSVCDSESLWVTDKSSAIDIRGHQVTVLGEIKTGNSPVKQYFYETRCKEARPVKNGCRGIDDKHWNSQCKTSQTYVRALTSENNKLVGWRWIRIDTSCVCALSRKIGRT
The experiment can be described thus: Mouse E17/18 trigeminal neuron survival assay, NT3. The following applies: saturating NT3; antibody up to 200 nM; 48 hours. In kind it is cell-based. How it is done: as §5, §3, §6

Another experiment concerns the target LIF (Homo sapiens, UniProt P15018). Briefly: Mouse E17 nodose neuron survival assay, LIF. In kind it is cell-based. As to conditions: LIF 2.5 nM; antibody up to 200 nM; 48 hours. How it is done: as §2, §3, §4
For another experiment, the target named is T4, BDNF (Homo sapiens, UniProt P23560).
T4 sequence (P23560 129-247): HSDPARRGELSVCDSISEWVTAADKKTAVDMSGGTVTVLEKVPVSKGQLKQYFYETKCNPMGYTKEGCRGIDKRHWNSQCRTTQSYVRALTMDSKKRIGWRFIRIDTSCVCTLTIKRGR
Briefly: Mouse E17 nodose neuron survival assay, BDNF. In kind it is cell-based. As to conditions: BDNF 400 pM; antibody up to 200 nM; 48 hours. The procedure:
as §2, §3, §4

T2 sequence (P01138 122-241): as the sequence (P01138 122-241) above
Chain of LIF (P15018 23-202, species assumed): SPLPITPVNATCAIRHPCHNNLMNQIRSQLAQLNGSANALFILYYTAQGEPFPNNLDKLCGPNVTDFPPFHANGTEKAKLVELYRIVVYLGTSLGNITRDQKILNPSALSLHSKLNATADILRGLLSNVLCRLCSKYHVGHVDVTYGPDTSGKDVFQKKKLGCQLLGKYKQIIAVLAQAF
Chain of macrophage stimulating protein (MSP) (P26927 19-711, species assumed): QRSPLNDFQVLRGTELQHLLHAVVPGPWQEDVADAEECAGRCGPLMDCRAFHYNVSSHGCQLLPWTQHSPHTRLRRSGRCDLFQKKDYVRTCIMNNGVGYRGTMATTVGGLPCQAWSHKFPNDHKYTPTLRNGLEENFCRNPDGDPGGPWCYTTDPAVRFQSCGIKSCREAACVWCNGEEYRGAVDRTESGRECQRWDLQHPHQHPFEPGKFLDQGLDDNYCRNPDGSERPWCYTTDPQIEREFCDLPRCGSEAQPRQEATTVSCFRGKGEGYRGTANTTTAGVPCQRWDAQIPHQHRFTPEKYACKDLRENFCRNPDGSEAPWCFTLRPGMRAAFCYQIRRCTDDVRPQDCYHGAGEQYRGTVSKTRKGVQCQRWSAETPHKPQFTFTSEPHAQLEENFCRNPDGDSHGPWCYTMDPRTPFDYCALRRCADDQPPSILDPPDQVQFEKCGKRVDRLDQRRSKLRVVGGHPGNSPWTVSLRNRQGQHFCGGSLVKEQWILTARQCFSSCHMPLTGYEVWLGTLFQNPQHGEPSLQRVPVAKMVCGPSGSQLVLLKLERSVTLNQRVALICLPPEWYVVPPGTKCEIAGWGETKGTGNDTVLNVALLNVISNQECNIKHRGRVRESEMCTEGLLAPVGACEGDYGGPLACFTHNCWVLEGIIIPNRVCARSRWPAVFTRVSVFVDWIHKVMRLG

B1: E3 (Fab): Fab fragment of humanized anti-NGF antibody E3 (antibody, V domains shown)
VH: QVQLQESGPGLVKPSETLSLTCTVSGFSLIGYDLNWIRQPPGKGLEWIGIIWGDGTTDYNSAVKSRVTISKDTSKNQFSLKLSSVTAADTAVYYCARGGYWYATSYYFDYWGQGTLVTVS
VL: DIQMTQSPSSLSASVGDRVTITCRASQSISNNLNWYQQKPGKAPKLLIYYTSRFHSGVPSRFSGSGSGTDFTFTISSLQPEDIATYYCQQEHTLPYTFGQGTKLEIKRT
The term koff denotes the rate constant with which the complex falls apart. By kon is commonly meant the rate constant with which the complex forms. Turning to B1, the “NGF binding to trkA (percent maximum RU)” value in experiment [1] is reported as “no NGF binding was observed”. Moreover, the “survival of E17 nodose neurons promoted by NT4/5” value in the experiment with NT4/5 is given as “did not inhibit”. Further, the “survival of E17/18 trigeminal neurons promoted by MSP” value in [2] is “did not inhibit”. Further, in the experiment with human NGF [3], the koff was below 4e-05 s⁻¹ and the kon came out at 600000 M⁻¹ s⁻¹. In the experiment with human NGF [4], the “survival of E17/18 trigeminal neurons promoted by NGF” value is “totally blocked”. Moreover, the “NGF binding to p75 (percent maximum RU)” value in [5] is reported as “no NGF binding was observed”. Besides, in the experiment with NT3, the “survival of E17/18 trigeminal neurons promoted by NT3” value is reported as “did not inhibit”. The “survival of E17 nodose neurons promoted by LIF” value in the experiment with LIF was “did not inhibit”. Also, the “survival of E17 nodose neurons promoted by BDNF” value in the experiment with BDNF is “did not inhibit”.
